According to article PMC10692165, “Structural basis of antibody inhibition and chemokine activation of the human CC chemokine receptor 8” (Nature Communications, 2023):
Several values for one entry are separate records, joined by “and”; a condition that tells them apart may be missing. Equal values may be shown once.

Columns and labels:
[1] = target: human CCR8 on CHO cells stably expressing human CCR8 (CHO.hCCR8) (human) (UniProt P51685); assay: real-time cell binding (LigandTracer); hCCL1^AF647 added at 0.5, 10 and 50 nM in sequence to CHO.hCCR8 cells at room temperature, then dissociation in medium; signal of CHO wild-type cells subtracted; one-to-two step model
Sequence of human CCR8 on CHO cells stably expressing human CCR8 (CHO.hCCR8) (human) (P51685 whole entry): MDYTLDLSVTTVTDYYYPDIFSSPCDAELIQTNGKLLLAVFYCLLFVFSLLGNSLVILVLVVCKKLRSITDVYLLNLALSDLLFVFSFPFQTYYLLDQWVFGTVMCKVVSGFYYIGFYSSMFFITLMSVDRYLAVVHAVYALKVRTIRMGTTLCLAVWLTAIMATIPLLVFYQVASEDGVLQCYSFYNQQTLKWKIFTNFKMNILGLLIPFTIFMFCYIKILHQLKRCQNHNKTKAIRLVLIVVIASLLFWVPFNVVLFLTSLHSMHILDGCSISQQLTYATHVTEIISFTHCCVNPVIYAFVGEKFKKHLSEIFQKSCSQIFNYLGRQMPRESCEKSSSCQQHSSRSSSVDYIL

[2] = target: T1, human CCR8 on CHO cells stably expressing human CCR8 (CHO.hCCR8) (Homo sapiens, UniProt P51685); assay: cell-based or functional assay
T1 sequence (P51685 whole entry): as above

[3] = target: T1, human CCR8 on CHO cells stably …; assay: radioligand binding; unlabeled mAb1 (from 50 nM, 1:3 dilutions) against a fixed concentration of 125I-mAb1 on CHO.CCR8 cells, room temperature, 18 h; heterologous one site-fit Ki competitive binding model; three independent experiments, not averaged; conditions: one partner purified

“AlexaFluor647-labeled human CCL1 (hCCL1^AF647) (from UniProt P22362 24-96) (ligand)” showed a KD of the high affinity binding event (slow on, slow off) [1] of 0.7 nM, a KD of the low affinity binding event (fast on, fast off) [1] of 15 nM and a Kd [1] of 1 nM.

B1: anti-human CCR8 antibody mAb1 (IgG) (antibody, V domains shown)
VH: QSVEESGGRLVTPGTPLTLTCTVSGFSLSNYAMIWVRQAPGEGLEWVGTISLGGYTYYANWAKGRFTISKTSTTVDLKISSPTTEDTATYFCARARWSTDSAIYTYAFDPWGPGTLVTVSS
VL: AYDMTQTPASVEVAVGGTVTIKCQASQSISSYLSWYQQKPGQRPELLIYKASTLASGVSSRFKGSGSGTQFTLTISDLEAADAATYYCQQGYTSSNIDNIFGGGTEVVVK
notes: variable region and CH1 as the heavy chain of Fab1, deposited in PDB 8TLM; as the light chain of Fab1, deposited in PDB 8TLM; Raised in rabbits; a humanized version was also made; the IgG was detected with anti-human IgG (Fc) secondaries; In the radioligand assay the tracer was 125I-labelled mAb1 (random tyrosines); also called anti-hCCR8 mAb1; anti-CCR8 mAb1
With B1 the “Ca^2+ influx (FLIPR) in CHO.hCCR8 cells: inhibition of the signal induced by a sub-maximal (EC80) concentration of CCL1 (blocks CCL1-CCR8); apparent IC50” value [2] was 57.9 nM, the Kd [3] was 0.0284 nM and the Ki [3] was 0.0414 nM and 0.0555 nM.
